Assays:
Test in all cases: cell-based or functional assay
[1] = molecular target: T1, factor VIIIa A1/A3C1C2 dimer, wild type (human, UniProt P00451 20-391; P00451 1709-2351)
T1 sequence 1: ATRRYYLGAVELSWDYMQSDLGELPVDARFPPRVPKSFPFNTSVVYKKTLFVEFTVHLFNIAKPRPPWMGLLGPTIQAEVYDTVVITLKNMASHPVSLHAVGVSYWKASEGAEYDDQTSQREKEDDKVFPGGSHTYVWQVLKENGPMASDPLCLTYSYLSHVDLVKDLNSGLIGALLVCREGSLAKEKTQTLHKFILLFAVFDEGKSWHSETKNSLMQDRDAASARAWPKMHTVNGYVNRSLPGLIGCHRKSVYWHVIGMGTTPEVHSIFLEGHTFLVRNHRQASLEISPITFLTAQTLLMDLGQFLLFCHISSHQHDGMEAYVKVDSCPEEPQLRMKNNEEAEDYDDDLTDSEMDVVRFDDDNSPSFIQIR
T1 sequence 2: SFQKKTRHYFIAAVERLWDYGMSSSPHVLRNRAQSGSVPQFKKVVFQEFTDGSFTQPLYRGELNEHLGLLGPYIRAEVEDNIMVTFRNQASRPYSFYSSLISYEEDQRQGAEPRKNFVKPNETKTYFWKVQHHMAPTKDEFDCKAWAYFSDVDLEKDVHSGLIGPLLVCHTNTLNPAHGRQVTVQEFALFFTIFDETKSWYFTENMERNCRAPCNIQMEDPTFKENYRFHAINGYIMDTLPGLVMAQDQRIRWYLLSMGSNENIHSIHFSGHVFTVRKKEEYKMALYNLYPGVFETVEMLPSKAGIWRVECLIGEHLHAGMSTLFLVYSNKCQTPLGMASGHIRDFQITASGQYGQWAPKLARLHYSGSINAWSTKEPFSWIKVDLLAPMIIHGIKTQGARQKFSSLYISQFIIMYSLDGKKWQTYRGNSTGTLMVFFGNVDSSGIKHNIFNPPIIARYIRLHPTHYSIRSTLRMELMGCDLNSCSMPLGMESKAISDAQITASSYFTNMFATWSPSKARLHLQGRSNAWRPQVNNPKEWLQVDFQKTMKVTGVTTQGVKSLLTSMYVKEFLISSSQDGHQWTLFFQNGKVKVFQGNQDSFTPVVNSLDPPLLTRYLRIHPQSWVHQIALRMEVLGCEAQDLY

[2] = molecular target: T2, factor VIIIa A1/A3C1C2 dimer, Glu1984Val (human, UniProt P00451 20-391; P00451 1709-2351)
T2 sequence 1: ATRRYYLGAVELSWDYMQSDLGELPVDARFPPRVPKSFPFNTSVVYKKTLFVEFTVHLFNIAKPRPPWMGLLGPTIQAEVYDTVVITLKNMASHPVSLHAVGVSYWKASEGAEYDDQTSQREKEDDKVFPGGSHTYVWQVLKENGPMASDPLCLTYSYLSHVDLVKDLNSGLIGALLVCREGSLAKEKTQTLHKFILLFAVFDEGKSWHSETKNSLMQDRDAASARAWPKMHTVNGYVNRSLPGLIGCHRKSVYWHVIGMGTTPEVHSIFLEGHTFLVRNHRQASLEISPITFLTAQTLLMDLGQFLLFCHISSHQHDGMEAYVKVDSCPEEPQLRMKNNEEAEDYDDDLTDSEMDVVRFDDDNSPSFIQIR
T2 sequence 2: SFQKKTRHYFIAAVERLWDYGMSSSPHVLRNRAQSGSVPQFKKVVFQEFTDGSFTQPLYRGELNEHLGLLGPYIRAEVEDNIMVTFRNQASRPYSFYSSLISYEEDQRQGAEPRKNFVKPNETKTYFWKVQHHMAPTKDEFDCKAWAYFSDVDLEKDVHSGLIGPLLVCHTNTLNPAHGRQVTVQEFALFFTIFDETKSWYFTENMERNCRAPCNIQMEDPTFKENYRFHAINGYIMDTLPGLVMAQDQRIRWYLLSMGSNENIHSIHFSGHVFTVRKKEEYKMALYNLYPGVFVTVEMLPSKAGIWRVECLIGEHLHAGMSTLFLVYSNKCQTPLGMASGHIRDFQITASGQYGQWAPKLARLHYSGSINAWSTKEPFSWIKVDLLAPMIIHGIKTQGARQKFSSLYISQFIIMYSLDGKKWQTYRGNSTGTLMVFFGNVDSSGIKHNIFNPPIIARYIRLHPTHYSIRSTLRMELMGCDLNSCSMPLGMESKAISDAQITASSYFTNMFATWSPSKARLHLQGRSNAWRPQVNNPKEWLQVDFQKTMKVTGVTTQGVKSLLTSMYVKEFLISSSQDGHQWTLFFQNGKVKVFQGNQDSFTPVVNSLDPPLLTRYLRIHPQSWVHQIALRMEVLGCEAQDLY

[3] = molecular target: T3, factor VIIIa A1/A3C1C2 dimer, Glu1984Ala (human, UniProt P00451 20-391; P00451 1709-2351)
T3 sequence 1: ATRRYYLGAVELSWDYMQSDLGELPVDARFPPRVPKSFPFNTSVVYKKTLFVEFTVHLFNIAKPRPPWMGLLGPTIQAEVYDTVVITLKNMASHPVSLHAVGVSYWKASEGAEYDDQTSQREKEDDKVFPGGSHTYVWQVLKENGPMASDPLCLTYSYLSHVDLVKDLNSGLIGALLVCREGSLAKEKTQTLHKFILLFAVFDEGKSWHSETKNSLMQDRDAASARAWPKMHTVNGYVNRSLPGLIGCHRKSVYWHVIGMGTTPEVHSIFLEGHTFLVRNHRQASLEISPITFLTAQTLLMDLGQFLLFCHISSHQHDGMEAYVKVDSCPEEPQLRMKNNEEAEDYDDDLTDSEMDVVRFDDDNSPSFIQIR
T3 sequence 2: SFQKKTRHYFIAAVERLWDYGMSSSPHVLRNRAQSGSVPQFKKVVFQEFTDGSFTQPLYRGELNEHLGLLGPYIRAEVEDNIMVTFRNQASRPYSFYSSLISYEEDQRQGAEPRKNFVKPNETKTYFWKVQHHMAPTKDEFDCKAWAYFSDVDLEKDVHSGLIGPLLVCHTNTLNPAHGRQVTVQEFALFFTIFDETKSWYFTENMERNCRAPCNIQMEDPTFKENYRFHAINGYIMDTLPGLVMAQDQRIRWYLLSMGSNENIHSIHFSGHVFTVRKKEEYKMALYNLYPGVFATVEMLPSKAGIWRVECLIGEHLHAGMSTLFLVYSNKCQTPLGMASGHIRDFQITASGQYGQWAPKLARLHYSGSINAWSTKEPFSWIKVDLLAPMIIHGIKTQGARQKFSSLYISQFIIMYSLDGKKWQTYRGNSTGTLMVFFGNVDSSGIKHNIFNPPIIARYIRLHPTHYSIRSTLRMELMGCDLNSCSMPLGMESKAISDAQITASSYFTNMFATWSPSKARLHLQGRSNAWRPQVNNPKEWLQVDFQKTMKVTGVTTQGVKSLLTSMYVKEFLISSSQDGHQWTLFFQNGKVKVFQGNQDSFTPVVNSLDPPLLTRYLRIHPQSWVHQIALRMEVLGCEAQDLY

[4] = molecular target: T4, factor VIIIa A1/A3C1C2 dimer, Glu113Ala (human, UniProt P00451 20-391; P00451 1709-2351)
T4 chain 1: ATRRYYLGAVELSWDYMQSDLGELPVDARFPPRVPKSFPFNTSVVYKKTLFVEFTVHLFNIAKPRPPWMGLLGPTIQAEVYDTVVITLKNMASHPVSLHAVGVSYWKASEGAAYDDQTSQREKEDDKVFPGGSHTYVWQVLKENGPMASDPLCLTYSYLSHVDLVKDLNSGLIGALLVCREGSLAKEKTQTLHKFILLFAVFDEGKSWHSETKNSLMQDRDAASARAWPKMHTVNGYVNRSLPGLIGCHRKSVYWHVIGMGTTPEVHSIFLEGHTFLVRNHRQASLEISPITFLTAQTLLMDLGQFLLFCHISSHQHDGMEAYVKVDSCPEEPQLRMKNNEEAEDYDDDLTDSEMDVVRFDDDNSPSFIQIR
T4 chain 2: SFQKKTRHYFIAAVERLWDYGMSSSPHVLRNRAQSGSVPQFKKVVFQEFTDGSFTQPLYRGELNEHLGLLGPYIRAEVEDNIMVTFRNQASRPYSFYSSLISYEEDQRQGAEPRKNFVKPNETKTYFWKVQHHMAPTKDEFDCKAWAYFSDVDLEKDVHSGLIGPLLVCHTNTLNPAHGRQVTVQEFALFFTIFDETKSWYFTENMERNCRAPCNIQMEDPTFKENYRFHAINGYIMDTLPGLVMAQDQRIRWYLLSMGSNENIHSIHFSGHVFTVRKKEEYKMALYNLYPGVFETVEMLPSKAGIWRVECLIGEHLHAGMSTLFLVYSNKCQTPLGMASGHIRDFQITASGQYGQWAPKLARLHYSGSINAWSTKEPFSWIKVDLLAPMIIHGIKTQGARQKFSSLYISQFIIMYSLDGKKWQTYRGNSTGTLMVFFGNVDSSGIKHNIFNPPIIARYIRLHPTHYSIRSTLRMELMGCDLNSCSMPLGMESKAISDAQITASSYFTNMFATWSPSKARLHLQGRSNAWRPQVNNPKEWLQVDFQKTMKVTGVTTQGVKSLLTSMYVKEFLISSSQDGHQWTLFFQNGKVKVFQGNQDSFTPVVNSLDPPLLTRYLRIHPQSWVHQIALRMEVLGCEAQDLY

[5] = molecular target: T1, factor VIIIa A1/A3C1C2 dimer, wild type; remark: listed apart in the source
[6] = molecular target: T2, factor VIIIa A1/A3C1C2 dimer, Glu1984Val; remark: listed apart in the source
[7] = molecular target: T3, factor VIIIa A1/A3C1C2 dimer, Glu1984Ala; remark: listed apart in the source

Factor VIIIa Decay relative to the WT value, Factor IXa absent [1]: 0.62 relative to WT | Factor VIIIa Decay relative to the WT value, Factor IXa present [1]: 0.51 relative to WT | Factor VIIIa Decay, Factor IXa absent [1]: 0.052 min⁻¹ | Factor VIIIa Decay, Factor IXa present [1]: 0.0078 min⁻¹ | factor VIIIa decay rate relative to the better single mutation of the pairing [2]: ~2.7 fold | factor VIIIa decay rate relative to the better single mutation of the pairing [3]: ~2.2 fold | Decay rate relative to wild type, Factor VIIIa (1.5 nM, factor IXa absent) [4]: 0.54 relative to wild type | Decay rate, Factor VIIIa (1.5 nM factor VIIIa, factor IXa absent) [4]: 0.0754 min⁻¹ | Decay rate relative to wild type, Factor VIIIa (1.5 nM, factor IXa absent) [5]: 0.6 relative to wild type | Decay rate, Factor VIIIa (1.5 nM factor VIIIa, factor IXa absent) [5]: 0.0834 min⁻¹ | Decay rate relative to wild type, Factor VIIIa (1.5 nM, factor IXa absent) [6]: 0.9 relative to wild type | Decay rate, Factor VIIIa (1.5 nM factor VIIIa, factor IXa absent) [6]: 0.127 min⁻¹ | Decay rate relative to wild type, Factor VIIIa (1.5 nM, factor IXa absent) [7]: 0.93 relative to wild type | Decay rate, Factor VIIIa (1.5 nM factor VIIIa, factor IXa absent) [7]: 0.13 min⁻¹
B1: factor VIIIa A2 subunit, Glu665Ala (other)
chain: SVAKKHPKTWVHYIAAEEEDWDYAPLVLAPDDRSYKSQYLNNGPQRIGRKYKKVRFMAYTDETFKTREAIQHESGILGPLLYGEVGDTLLIIFKNQASRPYNIYPHGITDVRPLYSRRLPKGVKHLKDFPILPGEIFKYKWTVTVEDGPTKSDPRCLTRYYSSFVNMERDLASGLIGPLLICYKESVDQRGNQIMSDKRNVILFSVFDENRSWYLTENIQRFLPNPAGVQLEDPEFQASNIMHSINGYVFDSLQLSVCLHEVAYWYILSIGAQTDFLSVFFSGYTFKHKMVYADTLTLFPFSGETVFMSMENPGLWILGCHNSDFRNRGMTALLKVSSCDKNTGDYYEDSYEDISAYLLSKNNAIEPR

— patent US20090118184A1 (UNIVERSITY OF ROCHESTER, published 2009)
